Reference: the supplement of paper PMC9112550, “Optimization of the antimicrobial peptide Bac7 by deep mutational scanning” (BMC Biology, 2022)

System: Escherichia coli TOP10
Test: shrunken log2 fold change of peptide-encoding DNA abundance (4.5 h post-induction vs induction); higher = less antimicrobial activity (less host growth inhibition)
Conditions: time post-induction: 4.5 h; library: site-saturation at positions 5, 18, 19, 20
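Also: peptides expressed intracellularly from a pBAD plasmid library in pooled LB shake-flask culture, induced with 0.3% L-arabinose, DNA abundance read by NGS, three biological replicates, DESeq2 with apeglm shrinkage.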

Sequence | shrunken log2 fold change
RRIRMRPPRLPRPRPRPIRTPRP | -0.0696
RRIRMRPPRLPRPRPRPISKPRP | 0.316
RRIRMRPPRLPRPRPRPITDPRP | -0.667
RRIRMRPPRLPRPRPRPITRPRP | 0.248
RRIRMRPPRLPRPRPRPIVTPRP | -0.00781
RRIRMRPPRLPRPRPRPKAIPRP | 0.417
RRIRMRPPRLPRPRPRPKANPRP | 1.96
RRIRMRPPRLPRPRPRPKCAPRP | 2.89
RRIRMRPPRLPRPRPRPKCDPRP | 0.318
RRIRMRPPRLPRPRPRPKDEPRP | 1.75
RRIRMRPPRLPRPRPRPKDGPRP | -0.0156
RRIRMRPPRLPRPRPRPKDNPRP | 1.43
RRIRMRPPRLPRPRPRPKDWPRP | 1.43
RRIRMRPPRLPRPRPRPKENPRP | 1.9
RRIRMRPPRLPRPRPRPKEYPRP | 0.189
RRIRMRPPRLPRPRPRPKHGPRP | 0.742
RRIRMRPPRLPRPRPRPKHKPRP | 0.562
RRIRMRPPRLPRPRPRPKKCPRP | 0.959
RRIRMRPPRLPRPRPRPKKLPRP | 0.354
RRIRMRPPRLPRPRPRPKLCPRP | 0.438
RRIRMRPPRLPRPRPRPKLEPRP | 1.14
RRIRMRPPRLPRPRPRPKLHPRP | 0.325
RRIRMRPPRLPRPRPRPKMIPRP | -0.0167
RRIRMRPPRLPRPRPRPKMQPRP | 0.995
RRIRMRPPRLPRPRPRPKPMPRP | 1.14

Sequence | shrunken log2 fold change
RRIRMRPPRLPRPRPRPKQCPRP | 0.208
RRIRMRPPRLPRPRPRPKQQPRP | 0.48
RRIRMRPPRLPRPRPRPKQTPRP | 3.33
RRIRMRPPRLPRPRPRPKQWPRP | 0.895
RRIRMRPPRLPRPRPRPKRAPRP | 2.44
RRIRMRPPRLPRPRPRPKRHPRP | 0.351
RRIRMRPPRLPRPRPRPKRQPRP | 0.0602
RRIRMRPPRLPRPRPRPKSGPRP | -0.101
RRIRMRPPRLPRPRPRPKSPPRP | 0.325
RRIRMRPPRLPRPRPRPKSRPRP | 0.0662
RRIRMRPPRLPRPRPRPKYWPRP | 0.164
RRIRMRPPRLPRPRPRPLCWPRP | 1.15
RRIRMRPPRLPRPRPRPLDYPRP | -0.0259
RRIRMRPPRLPRPRPRPLFGPRP | 0.232
RRIRMRPPRLPRPRPRPLGEPRP | 0.317
RRIRMRPPRLPRPRPRPLHIPRP | -0.0533
RRIRMRPPRLPRPRPRPLINPRP | -0.231
RRIRMRPPRLPRPRPRPLKAPRP | 0.541
RRIRMRPPRLPRPRPRPLKDPRP | 0.0898
RRIRMRPPRLPRPRPRPLKKPRP | 0.349
RRIRMRPPRLPRPRPRPLKPPRP | 0.528
RRIRMRPPRLPRPRPRPLLIPRP | -0.397
RRIRMRPPRLPRPRPRPLLPPRP | 0.354
RRIRMRPPRLPRPRPRPLLRPRP | 0.0923
RRIRMRPPRLPRPRPRPLMYPRP | -0.295

Sequence | shrunken log2 fold change
RRIRMRPPRLPRPRPRPLPQPRP | 0.742
RRIRMRPPRLPRPRPRPLRVPRP | 1.14
RRIRMRPPRLPRPRPRPLSDPRP | 0.861
RRIRMRPPRLPRPRPRPLTPPRP | 1.13
RRIRMRPPRLPRPRPRPLTSPRP | 0.0851
RRIRMRPPRLPRPRPRPLVRPRP | 0.51
RRIRMRPPRLPRPRPRPLYAPRP | 0.063
RRIRMRPPRLPRPRPRPLYHPRP | -0.0416
RRIRMRPPRLPRPRPRPLYPPRP | -0.151
RRIRMRPPRLPRPRPRPMAQPRP | -0.0018
RRIRMRPPRLPRPRPRPMASPRP | 0.00888
RRIRMRPPRLPRPRPRPMCHPRP | 0.0525
RRIRMRPPRLPRPRPRPMCNPRP | -0.00494
RRIRMRPPRLPRPRPRPMDAPRP | 0.781
RRIRMRPPRLPRPRPRPMDIPRP | 0.468
RRIRMRPPRLPRPRPRPMDMPRP | 0.482
RRIRMRPPRLPRPRPRPMEHPRP | 0.0124
RRIRMRPPRLPRPRPRPMEVPRP | 0.0214
RRIRMRPPRLPRPRPRPMFAPRP | 0.304
RRIRMRPPRLPRPRPRPMFNPRP | -0.343
RRIRMRPPRLPRPRPRPMIAPRP | 0.0314
RRIRMRPPRLPRPRPRPMLCPRP | 0.049
RRIRMRPPRLPRPRPRPMMCPRP | -0.0746
RRIRMRPPRLPRPRPRPMMDPRP | 0.0325
RRIRMRPPRLPRPRPRPMMMPRP | -0.0717

Sequence | shrunken log2 fold change
RRIRMRPPRLPRPRPRPMNNPRP | -0.411
RRIRMRPPRLPRPRPRPMQKPRP | 0.0563
RRIRMRPPRLPRPRPRPMQSPRP | 0.886
RRIRMRPPRLPRPRPRPMRDPRP | 1.3
RRIRMRPPRLPRPRPRPMRMPRP | 0.759
RRIRMRPPRLPRPRPRPMRSPRP | 1.67
RRIRMRPPRLPRPRPRPMSLPRP | -0.207
RRIRMRPPRLPRPRPRPMSPPRP | 0.00473
RRIRMRPPRLPRPRPRPMTVPRP | 0.0944
RRIRMRPPRLPRPRPRPMWKPRP | -0.00141
RRIRMRPPRLPRPRPRPMYAPRP | 0.0486
RRIRMRPPRLPRPRPRPMYIPRP | -0.0178
RRIRMRPPRLPRPRPRPNAAPRP | 2.83
RRIRMRPPRLPRPRPRPNCEPRP | 0.247
RRIRMRPPRLPRPRPRPNCMPRP | 0.183
RRIRMRPPRLPRPRPRPNCTPRP | -0.15
RRIRMRPPRLPRPRPRPNFGPRP | 0.0832
RRIRMRPPRLPRPRPRPNGGPRP | 0.112
RRIRMRPPRLPRPRPRPNGMPRP | 0.185
RRIRMRPPRLPRPRPRPNHNPRP | -0.687
RRIRMRPPRLPRPRPRPNHYPRP | -0.352
RRIRMRPPRLPRPRPRPNIAPRP | 0.397
RRIRMRPPRLPRPRPRPNIRPRP | -0.169
RRIRMRPPRLPRPRPRPNLDPRP | 0.00884
RRIRMRPPRLPRPRPRPNNEPRP | -0.0748

Sequence | shrunken log2 fold change
RRIRMRPPRLPRPRPRPNNRPRP | -0.0376
RRIRMRPPRLPRPRPRPNPVPRP | -0.0385
RRIRMRPPRLPRPRPRPNQCPRP | -0.198
RRIRMRPPRLPRPRPRPNQHPRP | -0.0206
RRIRMRPPRLPRPRPRPNQYPRP | -0.218
RRIRMRPPRLPRPRPRPNRFPRP | -0.0257
RRIRMRPPRLPRPRPRPNRIPRP | -0.18
RRIRMRPPRLPRPRPRPNRSPRP | -0.0367
RRIRMRPPRLPRPRPRPNRVPRP | -0.144
RRIRMRPPRLPRPRPRPNRYPRP | 0.166
RRIRMRPPRLPRPRPRPNSPPRP | 0.147
RRIRMRPPRLPRPRPRPNTKPRP | -0.0097
RRIRMRPPRLPRPRPRPNVAPRP | 0.099
RRIRMRPPRLPRPRPRPNWQPRP | 0.00599
RRIRMRPPRLPRPRPRPPAEPRP | 3.68
RRIRMRPPRLPRPRPRPPAYPRP | 0.608
RRIRMRPPRLPRPRPRPPERPRP | 1.98
RRIRMRPPRLPRPRPRPPHCPRP | 1.68
RRIRMRPPRLPRPRPRPPKCPRP | 0.0414
RRIRMRPPRLPRPRPRPPKFPRP | 0.166
RRIRMRPPRLPRPRPRPPKIPRP | 0.45
RRIRMRPPRLPRPRPRPPMEPRP | 0.696
RRIRMRPPRLPRPRPRPPMQPRP | 0.504
RRIRMRPPRLPRPRPRPPNRPRP | 1.08
RRIRMRPPRLPRPRPRPPPIPRP | 1.47

Sequence | shrunken log2 fold change
RRIRMRPPRLPRPRPRPPQAPRP | 1.06
RRIRMRPPRLPRPRPRPPQSPRP | 0.721
RRIRMRPPRLPRPRPRPPRSPRP | 1.6
RRIRMRPPRLPRPRPRPPRTPRP | 1.46
RRIRMRPPRLPRPRPRPPSQPRP | 1.18
RRIRMRPPRLPRPRPRPPSVPRP | 0.777
RRIRMRPPRLPRPRPRPPTEPRP | 0.413
RRIRMRPPRLPRPRPRPPTNPRP | 0.949
RRIRMRPPRLPRPRPRPPYEPRP | 0.0457
RRIRMRPPRLPRPRPRPQAGPRP | 0.214
RRIRMRPPRLPRPRPRPQEIPRP | -0.00046
RRIRMRPPRLPRPRPRPQGTPRP | -0.000856
RRIRMRPPRLPRPRPRPQHKPRP | -0.0523
RRIRMRPPRLPRPRPRPQHVPRP | 0.0365
RRIRMRPPRLPRPRPRPQKAPRP | 0.0203
RRIRMRPPRLPRPRPRPQKMPRP | 0.0453
RRIRMRPPRLPRPRPRPQKSPRP | 0.167
RRIRMRPPRLPRPRPRPQKYPRP | 0.136
RRIRMRPPRLPRPRPRPQLDPRP | 0.277
RRIRMRPPRLPRPRPRPQLPPRP | -0.105
RRIRMRPPRLPRPRPRPQNGPRP | 0.0258
RRIRMRPPRLPRPRPRPQPGPRP | 0.778
RRIRMRPPRLPRPRPRPQPPPRP | 1.18
RRIRMRPPRLPRPRPRPQQTPRP | 1.14
RRIRMRPPRLPRPRPRPQRTPRP | 1.56
